Test results published in article PMC8748450, “Aminoacyl chain translocation catalysed by a type II thioesterase domain in an unusual non-ribosomal peptide synthetase” (Nature Communications, 2022).

What was measured:
Conditions in all cases: both partners purified
[1] = molecular target: T1, apo-LgnD (NRPS subunit, C1-T1-C2-A2-T2-TE); experiment: ITC; LgnA (125 µM) titrated into LgnD or truncated LgnD (25 µM), also into LgnB (concentrations for LgnB not told); thirteen 3 µL injections, 25 °C; one set binding model; MicroCal PEAQ-ITC
T1 construct: LgnD, NRPS subunit with domains C1-T1-C2-A2-T2-TE, encoded by lgnD of the legonmycin (lgn) biosynthetic gene cluster, amplified from cosmid 7G1; about 207 kDa; apo form (no phosphopantetheine); Cloned into NdeI/XhoI of pEHISTEVa; MA37; also called full-length LgnD; source: E. coli BL21-CodonPlus (DE3)-RP, purified (Ni-NTA; gel filtration on Superdex 75 for ITC)

[2] = molecular target: T2, apo-LgnB-A1-T0 didomain (NRPS subunit LgnB) (RED-tris-NTA label (in the MST experiment only)); experiment: MST; LgnB labelled with RED-tris-NTA, 25 nM, as target; LgnA as ligand, 10 to 0.000305 µM; HBS-ET (10 mM HEPES, 150 mM NaCl, 3 mM EDTA, 0.005% Tween-20, pH 8.0); 25 °C; Monolith NT.115
T2 construct: LgnB, NRPS subunit with domains A1-T0, encoded by lgnB of the legonmycin (lgn) biosynthetic gene cluster, amplified from cosmid 7G1; about 65 kDa; apo form (no phosphopantetheine); Cloned into EcoRI/HindIII of pET-28a(+); MA37; source: E. coli BL21-CodonPlus (DE3)-RP, purified (Ni-NTA; gel filtration on Superdex 75 for ITC); not shown: His6, N-terminal, kept
T2 sequence (main, as listed by the source): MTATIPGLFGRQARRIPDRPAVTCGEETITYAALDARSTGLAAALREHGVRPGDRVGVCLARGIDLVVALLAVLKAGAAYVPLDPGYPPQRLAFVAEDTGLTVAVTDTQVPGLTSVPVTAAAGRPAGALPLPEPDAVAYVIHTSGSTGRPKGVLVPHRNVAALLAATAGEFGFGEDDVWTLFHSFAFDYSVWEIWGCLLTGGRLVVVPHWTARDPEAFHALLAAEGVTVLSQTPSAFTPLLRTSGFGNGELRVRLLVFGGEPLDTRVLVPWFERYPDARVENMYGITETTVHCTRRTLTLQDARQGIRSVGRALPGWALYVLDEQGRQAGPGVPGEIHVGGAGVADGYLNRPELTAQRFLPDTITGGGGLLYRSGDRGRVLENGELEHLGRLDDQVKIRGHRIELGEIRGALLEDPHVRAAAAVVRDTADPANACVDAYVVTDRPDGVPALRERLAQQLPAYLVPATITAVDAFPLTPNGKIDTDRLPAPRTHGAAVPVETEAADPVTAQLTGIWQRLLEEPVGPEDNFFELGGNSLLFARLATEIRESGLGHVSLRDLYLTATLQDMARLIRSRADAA

[3] = molecular target: T3, apo-LgnD-C1-T1 didomain (truncated LgnD); experiment: ITC; LgnA (125 µM) titrated into LgnD or truncated LgnD (25 µM), also into LgnB (concentrations for LgnB not told); thirteen 3 µL injections, 25 °C; one set binding model; MicroCal PEAQ-ITC
T3 chain: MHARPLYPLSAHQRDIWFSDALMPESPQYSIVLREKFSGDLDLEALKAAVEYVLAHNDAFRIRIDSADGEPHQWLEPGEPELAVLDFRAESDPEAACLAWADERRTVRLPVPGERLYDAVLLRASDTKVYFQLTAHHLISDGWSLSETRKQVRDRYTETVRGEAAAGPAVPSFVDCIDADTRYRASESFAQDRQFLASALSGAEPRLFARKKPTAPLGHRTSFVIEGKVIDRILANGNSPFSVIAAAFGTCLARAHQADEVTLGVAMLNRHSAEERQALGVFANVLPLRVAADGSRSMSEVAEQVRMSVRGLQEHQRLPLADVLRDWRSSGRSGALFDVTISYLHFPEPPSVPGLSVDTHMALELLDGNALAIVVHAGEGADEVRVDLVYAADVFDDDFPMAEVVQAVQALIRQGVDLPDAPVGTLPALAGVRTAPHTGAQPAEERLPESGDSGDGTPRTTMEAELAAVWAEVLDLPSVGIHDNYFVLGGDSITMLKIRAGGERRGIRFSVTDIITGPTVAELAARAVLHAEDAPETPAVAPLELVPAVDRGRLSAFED

[4] = molecular target: T4, LgnD-T1 domain (truncated LgnD); experiment: as above
T4 chain: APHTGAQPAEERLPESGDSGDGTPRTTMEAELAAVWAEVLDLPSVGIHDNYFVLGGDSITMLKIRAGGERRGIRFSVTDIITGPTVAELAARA

B1: LgnA, type II thioesterase (TEII) orthologue (enzyme)
chain: MPVTLLCIPYAGAGASLFRRWKRHPFQHMDVAAVQLPGREELFADGPCTSMSELVDLCAGHIRELPQDAPFALFGHSFGALVAYETAQRLAAEGLRLPERLIVSGAAAPWLPRPVTDADSLSDDQFVARVRDVVGYDHPALHDAELRGLLLPSLRADLSISDRYAPGSTDPLPVPLTVLRGSDDRLVSRQDVELWAKAASQPTELIELPGDHMYFSLDPKPLLAELDAVFARSAA
With B1 the Kd [1] was 2550 ± 96 nM and the Kd [2] was 1700 ± 813 nM.

B2: LgnA, type II thioesterase (TEII) orthologue (enzyme)
chain: B1 chain
modifications: apo form (no phosphopantetheine on Ser492)
Work on B2 yielded a Kd [3] of 1010 ± 227 nM.

B3: LgnA, type II thioesterase (TEII) orthologue (enzyme)
chain: B1 chain
modifications: apo form (no phosphopantetheine on Ser492 of LgnD); limits from primers 28a-LgnD_T1-F/R
B3 was tested, and the Kd [4] was 7210 ± 1610 nM.
